Measured values as given in IntAct's records for PubMed 21685921.

B1: Regulator of G-protein signaling 4 (Homo sapiens), P49798 (parent)
chain: MCKGLAGLPASCLRSAKDMKHRLGFLLQKSDSCEHNSSHNKKDKVVICQRVSQEEVKKWAESLENLISHECGLAAFKAFLKSEYSEENIDFWISCEEYKKIKSPSKLSPKAKKIYNEFISVQATKEVNLDSCTREETSRNMLEPTITCFDEAQKKIFNLMEKDSYRRFLKSRFYLDLVNPSSCGAEKQKGAKSSADCASLVPQCA
B2: Regulator of G-protein signaling 18 (Homo sapiens), Q9NS28 (parent)
chain: METTLLFFSQINMCESKEKTFFKLIHGSGKEETSKEAKIRAKEKRNRLSLLVQKPEFHEDTRSSRSGHLAKETRVSPEEAVKWGESFDKLLSHRDGLEAFTRFLKTEFSEENIEFWIACEDFKKSKGPQQIHLKAKAIYEKFIQTDAPKEVNLDFHTKEVITNSITQPTLHSFDAAQSRVYQLMEQDSYTRFLKSDIYLDLMEGRPQRPTNLRRRSRSFTCNEFQDVQSDVAIWL
B3: Regulator of G-protein signaling 17 (Homo sapiens), Q9UGC6 (parent)
chain: MRKRQQSQNEGTPAVSQAPGNQRPNNTCCFCWCCCCSCSCLTVRNEERGENAGRPTHTTKMESIQVLEECQNPTAEEVLSWSQNFDKMMKAPAGRNLFREFLRTEYSEENLLFWLACEDLKKEQNKKVIEEKARMIYEDYISILSPKEVSLDSRVREVINRNLLDPNPHMYEDAQLQIYTLMHRDSFPRFLNSQIYKSFVESTAGSSSES
B4: Regulator of G-protein signaling 16 (Homo sapiens), O15492 (parent)
chain: MCRTLAAFPTTCLERAKEFKTRLGIFLHKSELGCDTGSTGKFEWGSKHSKENRNFSEDVLGWRESFDLLLSSKNGVAAFHAFLKTEFSEENLEFWLACEEFKKIRSATKLASRAHQIFEEFICSEAPKEVNIDHETHELTRMNLQTATATCFDAAQGKTRTLMEKDSYPRFLKSPAYRDLAAQASAASATLSSCSLDEPSHT

Variants of: B1
Settings: with gnao_rat Gnao1, P59215
Chain of gnao_rat Gnao1, P59215 (P59215 whole entry): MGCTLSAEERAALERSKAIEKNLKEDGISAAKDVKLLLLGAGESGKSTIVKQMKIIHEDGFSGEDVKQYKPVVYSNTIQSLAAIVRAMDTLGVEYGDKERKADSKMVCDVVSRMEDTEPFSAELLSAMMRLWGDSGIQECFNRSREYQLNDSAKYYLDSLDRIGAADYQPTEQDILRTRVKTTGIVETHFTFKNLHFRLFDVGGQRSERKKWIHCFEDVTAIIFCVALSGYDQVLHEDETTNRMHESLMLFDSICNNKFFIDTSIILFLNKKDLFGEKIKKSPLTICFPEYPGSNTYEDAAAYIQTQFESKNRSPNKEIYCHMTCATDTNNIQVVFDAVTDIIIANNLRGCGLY

Row | Variant | effect of a mutation on the interaction
1 | R134A;R166A | decreasing interaction
2 | E126A;R134A;R166A | disrupting interaction
3 | R134A | decreasing interaction
4 | N128S | disrupting interaction

Variants of: B2
Settings: with gnao_rat Gnao1, P59215

Row | Variant | effect of a mutation on the interaction
5 | K141E;H156E;K158R | increasing interaction
6 | K141E;H156E;K158R;Q186K | increasing interaction
7 | Q186K | increasing interaction
8 | H156E;K158R | increasing interaction

Variants of: B3
Settings: with gnao_rat Gnao1, P59215

Row | Variant | effect of a mutation on the interaction
9 | I143S;L144E;S145A;S150N;H183E;R184K;N192K | increasing interaction
10 | I143S;L144E;S145A;S150N;N192K | increasing interaction

Variants of: B4
Settings: with gnao_rat Gnao1, P59215

Row | Variant | effect of a mutation on the interaction
11 | E90A | decreasing interaction
12 | E129A | decreasing interaction
13 | E125A;E129A | decreasing interaction
14 | E125A;E129A;K173A | decreasing interaction
